Measurements as given in article PMC10208982, “Structural basis of catalytic activation in human splicing” (Nature, 2023).

Experiments:
[1] = target: T1, PRP2 (DHX16) 137-1022;PPIL4 (Homo sapiens;Homo sapiens, UniProt O60231;Q8WUA2 137-1022;1-492, |); test: EMSA; purified co-expressed complex; 2 mM Mg2+; EMSA: 50 nM RNA, 0.1-8 uM protein, 20 mM HEPES-KOH pH 7.5, 50 mM KCl, 2 mM MgCl2, 0.1 mg/ml BSA, 5% glycerol, 30 min room temperature; 5% native gel in Tris-glycine; details: protein: recombinant;recombinant; tags: N-terminal Twin-StrepII;untagged (Twin-StrepII removed by HRV-3C); copies: 1;1; label: Cy5 at 3' end of S3; 18 bp duplex, 3' overhang 30 nt on S4
T1 sequence 1: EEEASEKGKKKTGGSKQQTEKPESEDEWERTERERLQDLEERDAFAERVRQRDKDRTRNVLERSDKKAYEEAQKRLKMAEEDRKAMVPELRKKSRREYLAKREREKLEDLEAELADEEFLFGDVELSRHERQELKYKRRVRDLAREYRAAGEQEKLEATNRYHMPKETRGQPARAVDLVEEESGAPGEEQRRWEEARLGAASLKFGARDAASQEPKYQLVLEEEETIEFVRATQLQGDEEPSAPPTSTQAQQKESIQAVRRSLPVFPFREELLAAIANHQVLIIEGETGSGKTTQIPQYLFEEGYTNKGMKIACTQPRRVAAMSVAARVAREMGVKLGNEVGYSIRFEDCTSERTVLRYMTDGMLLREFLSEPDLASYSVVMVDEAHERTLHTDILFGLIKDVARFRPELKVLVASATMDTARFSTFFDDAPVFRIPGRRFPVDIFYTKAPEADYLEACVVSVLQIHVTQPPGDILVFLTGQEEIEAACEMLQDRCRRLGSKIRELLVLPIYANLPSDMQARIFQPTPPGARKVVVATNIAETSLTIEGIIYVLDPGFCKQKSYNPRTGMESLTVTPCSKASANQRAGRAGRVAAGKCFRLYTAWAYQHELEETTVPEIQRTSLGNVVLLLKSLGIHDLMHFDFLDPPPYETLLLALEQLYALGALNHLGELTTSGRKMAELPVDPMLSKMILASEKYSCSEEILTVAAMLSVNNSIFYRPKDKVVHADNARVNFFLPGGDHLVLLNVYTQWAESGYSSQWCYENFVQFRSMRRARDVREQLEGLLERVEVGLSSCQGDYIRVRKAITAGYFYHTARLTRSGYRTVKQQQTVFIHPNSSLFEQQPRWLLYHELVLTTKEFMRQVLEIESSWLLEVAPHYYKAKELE
T1 sequence 2: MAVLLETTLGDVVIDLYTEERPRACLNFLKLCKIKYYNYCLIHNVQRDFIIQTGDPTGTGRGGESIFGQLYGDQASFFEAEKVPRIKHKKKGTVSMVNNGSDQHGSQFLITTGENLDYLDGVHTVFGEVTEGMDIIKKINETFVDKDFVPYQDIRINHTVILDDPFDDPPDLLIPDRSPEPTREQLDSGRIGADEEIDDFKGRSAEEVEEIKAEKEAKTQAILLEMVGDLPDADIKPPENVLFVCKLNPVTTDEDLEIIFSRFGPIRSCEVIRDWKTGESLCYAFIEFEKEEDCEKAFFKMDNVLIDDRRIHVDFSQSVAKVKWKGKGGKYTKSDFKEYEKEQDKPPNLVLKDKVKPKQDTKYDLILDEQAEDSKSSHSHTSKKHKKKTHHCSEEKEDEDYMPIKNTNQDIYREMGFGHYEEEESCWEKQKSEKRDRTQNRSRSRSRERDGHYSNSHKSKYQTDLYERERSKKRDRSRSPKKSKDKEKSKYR

PPIL4 = target: T2, PPIL4 (Homo sapiens, UniProt Q8WUA2 1-492); test: EMSA; no PRP2; 2 mM Mg2+; EMSA: 50 nM RNA, 0.1-8 uM protein, 20 mM HEPES-KOH pH 7.5, 50 mM KCl, 2 mM MgCl2, 0.1 mg/ml BSA, 5% glycerol, 30 min room temperature; 5% native gel in Tris-glycine; details: protein: recombinant; tags: untagged (Twin-StrepII removed by HRV-3C); label: Cy5 at 3' end of S3; 18 bp duplex, 3' overhang 30 nt on S4
T2 sequence: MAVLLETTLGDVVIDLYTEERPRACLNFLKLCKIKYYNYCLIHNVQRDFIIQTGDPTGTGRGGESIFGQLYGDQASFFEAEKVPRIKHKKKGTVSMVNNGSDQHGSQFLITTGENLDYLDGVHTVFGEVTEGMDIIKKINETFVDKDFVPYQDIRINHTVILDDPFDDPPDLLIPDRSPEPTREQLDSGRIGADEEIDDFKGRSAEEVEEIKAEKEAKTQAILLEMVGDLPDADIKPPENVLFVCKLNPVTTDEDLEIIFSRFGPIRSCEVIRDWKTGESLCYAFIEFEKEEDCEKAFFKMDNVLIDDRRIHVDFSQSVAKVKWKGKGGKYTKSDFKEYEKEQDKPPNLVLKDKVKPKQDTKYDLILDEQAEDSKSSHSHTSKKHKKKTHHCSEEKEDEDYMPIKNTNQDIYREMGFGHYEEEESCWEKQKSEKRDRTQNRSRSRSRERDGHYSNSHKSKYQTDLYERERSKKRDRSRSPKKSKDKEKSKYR

PRP2 (DHX16) 137-1022 = target: T3, PRP2 (DHX16) 137-1022 (Homo sapiens, UniProt O60231 137-1022); test: EMSA; 2 mM Mg2+; EMSA: 50 nM RNA, 0.1-8 uM protein, 20 mM HEPES-KOH pH 7.5, 50 mM KCl, 2 mM MgCl2, 0.1 mg/ml BSA, 5% glycerol, 30 min room temperature; 5% native gel in Tris-glycine; details: protein: recombinant; tags: N-terminal Twin-StrepII; label: Cy5 at 3' end of S3; 18 bp duplex, 3' overhang 30 nt on S4
T3 sequence: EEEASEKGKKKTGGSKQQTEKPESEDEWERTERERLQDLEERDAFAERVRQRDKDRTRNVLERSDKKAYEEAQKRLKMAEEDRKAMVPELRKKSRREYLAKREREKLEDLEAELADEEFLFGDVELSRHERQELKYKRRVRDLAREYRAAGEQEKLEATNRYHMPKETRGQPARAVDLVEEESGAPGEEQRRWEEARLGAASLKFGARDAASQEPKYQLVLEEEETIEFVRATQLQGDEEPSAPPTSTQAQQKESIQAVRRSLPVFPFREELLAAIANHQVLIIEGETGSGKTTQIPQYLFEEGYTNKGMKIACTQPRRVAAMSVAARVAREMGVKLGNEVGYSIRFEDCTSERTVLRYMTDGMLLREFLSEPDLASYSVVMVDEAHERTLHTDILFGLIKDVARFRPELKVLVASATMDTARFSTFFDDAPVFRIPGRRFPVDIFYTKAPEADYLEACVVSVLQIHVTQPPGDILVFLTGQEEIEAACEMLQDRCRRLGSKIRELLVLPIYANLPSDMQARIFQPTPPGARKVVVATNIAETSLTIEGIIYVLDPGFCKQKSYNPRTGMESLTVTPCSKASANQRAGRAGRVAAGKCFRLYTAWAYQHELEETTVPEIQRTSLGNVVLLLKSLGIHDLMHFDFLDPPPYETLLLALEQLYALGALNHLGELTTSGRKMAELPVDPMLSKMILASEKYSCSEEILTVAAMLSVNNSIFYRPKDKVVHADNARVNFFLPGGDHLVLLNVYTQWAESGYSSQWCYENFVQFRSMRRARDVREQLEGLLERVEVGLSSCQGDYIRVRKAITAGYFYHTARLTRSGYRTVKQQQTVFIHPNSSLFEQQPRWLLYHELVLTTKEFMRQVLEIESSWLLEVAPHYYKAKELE

GPKOW = target: T4, GPKOW (Homo sapiens, UniProt Q92917 1-476); test: as above; details: protein: recombinant; tags: N-terminal Twin-StrepII; label: Cy5 at 3' end of S3; 18 bp duplex, 3' overhang 30 nt on S4
T4 sequence: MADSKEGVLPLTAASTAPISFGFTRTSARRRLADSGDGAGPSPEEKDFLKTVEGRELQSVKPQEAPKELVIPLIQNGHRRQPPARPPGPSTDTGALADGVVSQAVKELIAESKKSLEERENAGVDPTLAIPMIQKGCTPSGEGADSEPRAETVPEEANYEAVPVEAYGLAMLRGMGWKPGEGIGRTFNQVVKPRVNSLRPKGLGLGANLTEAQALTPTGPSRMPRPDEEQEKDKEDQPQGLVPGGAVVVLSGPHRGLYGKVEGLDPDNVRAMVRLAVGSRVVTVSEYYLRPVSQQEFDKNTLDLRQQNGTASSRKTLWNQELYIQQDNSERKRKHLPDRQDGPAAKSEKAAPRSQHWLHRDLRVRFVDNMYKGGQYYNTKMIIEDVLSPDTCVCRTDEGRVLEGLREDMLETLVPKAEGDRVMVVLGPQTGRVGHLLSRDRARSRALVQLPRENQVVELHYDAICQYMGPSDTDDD

[2] = target: T5, PRP2 (DHX16) 137-1022;GPKOW (Homo sapiens;Homo sapiens, UniProt O60231;Q92917 137-1022;1-476, |); test: EMSA; complex assembled in vitro; 2 mM Mg2+; EMSA: 50 nM RNA, 0.1-8 uM protein, 20 mM HEPES-KOH pH 7.5, 50 mM KCl, 2 mM MgCl2, 0.1 mg/ml BSA, 5% glycerol, 30 min room temperature; 5% native gel in Tris-glycine; details: protein: recombinant;recombinant; tags: N-terminal Twin-StrepII;N-terminal Twin-StrepII; copies: 1;1; label: Cy5 at 3' end of S3; 18 bp duplex, 3' overhang 30 nt on S4
T5 sequence 1: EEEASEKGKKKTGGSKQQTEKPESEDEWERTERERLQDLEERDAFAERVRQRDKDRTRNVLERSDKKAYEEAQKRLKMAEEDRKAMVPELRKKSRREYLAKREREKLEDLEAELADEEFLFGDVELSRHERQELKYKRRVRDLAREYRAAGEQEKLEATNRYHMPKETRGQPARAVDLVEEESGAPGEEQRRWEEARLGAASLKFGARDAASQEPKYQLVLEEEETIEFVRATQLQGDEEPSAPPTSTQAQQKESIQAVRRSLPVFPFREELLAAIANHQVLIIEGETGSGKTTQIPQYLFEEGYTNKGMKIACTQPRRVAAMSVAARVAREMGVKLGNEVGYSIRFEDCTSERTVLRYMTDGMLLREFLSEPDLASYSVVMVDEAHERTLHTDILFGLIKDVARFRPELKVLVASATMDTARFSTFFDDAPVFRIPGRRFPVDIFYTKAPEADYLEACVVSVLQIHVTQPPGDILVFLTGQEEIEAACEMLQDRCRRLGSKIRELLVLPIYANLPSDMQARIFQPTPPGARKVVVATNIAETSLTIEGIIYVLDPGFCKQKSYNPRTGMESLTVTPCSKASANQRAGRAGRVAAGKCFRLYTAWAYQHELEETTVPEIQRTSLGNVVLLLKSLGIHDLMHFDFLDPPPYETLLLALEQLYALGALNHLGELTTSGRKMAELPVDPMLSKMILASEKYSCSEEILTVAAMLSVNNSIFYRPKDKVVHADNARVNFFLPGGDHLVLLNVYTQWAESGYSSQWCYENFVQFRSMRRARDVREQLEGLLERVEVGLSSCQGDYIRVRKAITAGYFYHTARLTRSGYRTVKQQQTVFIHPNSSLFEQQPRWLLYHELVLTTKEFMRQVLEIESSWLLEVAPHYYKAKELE
T5 sequence 2: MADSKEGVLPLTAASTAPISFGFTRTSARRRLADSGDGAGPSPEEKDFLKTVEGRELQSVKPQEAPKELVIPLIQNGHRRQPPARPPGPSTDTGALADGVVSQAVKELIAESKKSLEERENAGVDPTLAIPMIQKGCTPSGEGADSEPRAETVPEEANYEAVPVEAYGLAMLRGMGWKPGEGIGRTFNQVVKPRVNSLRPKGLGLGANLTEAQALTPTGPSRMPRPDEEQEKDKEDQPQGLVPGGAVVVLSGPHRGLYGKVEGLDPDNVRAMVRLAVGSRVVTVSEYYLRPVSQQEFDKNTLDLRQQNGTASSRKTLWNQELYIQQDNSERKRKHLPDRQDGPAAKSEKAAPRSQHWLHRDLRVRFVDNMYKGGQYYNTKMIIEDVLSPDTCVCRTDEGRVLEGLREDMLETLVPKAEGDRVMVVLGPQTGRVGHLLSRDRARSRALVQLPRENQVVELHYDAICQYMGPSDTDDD

Measured: binding result

B1: Cy5 RNA duplex with 30-nt 3' overhang (dsRNA)
RNA 1: GCGCCUACGGAGCUGGUGGCGUAGGCGCAAAAAAAAAAAAAAAAAAAA
RNA 2: CACCAGCUCCGUAGGCGC
binds: all assays above
